In test [1] the target is T1, human CD43, endogenous, on primary cells and cell lines that carry the UMG1 epitope (human, UniProt P16150 20-400, native glycosylation of the cell concerned).
T1 construct: also called UMG1 antigen; the target
T1 sequence: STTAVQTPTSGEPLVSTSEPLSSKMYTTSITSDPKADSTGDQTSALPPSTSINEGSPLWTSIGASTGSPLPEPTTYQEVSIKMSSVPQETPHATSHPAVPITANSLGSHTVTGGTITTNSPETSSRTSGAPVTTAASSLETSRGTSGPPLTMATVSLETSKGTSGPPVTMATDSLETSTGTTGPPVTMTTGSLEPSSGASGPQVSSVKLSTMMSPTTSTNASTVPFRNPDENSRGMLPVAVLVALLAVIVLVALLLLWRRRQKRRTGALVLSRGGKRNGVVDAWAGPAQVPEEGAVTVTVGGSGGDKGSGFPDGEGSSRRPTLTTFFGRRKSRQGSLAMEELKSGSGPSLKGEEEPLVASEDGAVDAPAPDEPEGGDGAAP
The experiment in a line: flow cytometry, antibody at 1 ug/ml, FITC mouse anti-human IgG secondary; histogram grid, cell line not labelled (HPB-ALL or H9). On the technique in general: Flow cytometry measures light scatter and fluorescence of single cells or particles in a stream.
Experimental: (§1) Each screening was performed twice, for a total of 4 replicates.

Test [2] addresses T1, human CD43, endogenous, on primary …. Nature of the test: flow cytometry, antibody at 1 ug/ml, FITC mouse anti-human IgG secondary; cell line of the histograms not labelled (HPB-ALL or H9).
Experimental: as §1

B1: humanized UMG1 antibody H3-L1 (VH3 + VL1) (antibody, IgG1, V domains shown)
VH: EVQLVESGGGLVQPGGSLRLSCVASGFTFSSFGMHWVRQAPGKGLEWVAYISSGSGNFYYVDTVKGRFTISRDNAKNSLYLQMNSLRAEDTAVYYCARSTYYHGSRGAMDYWGQGTLVTVSS
VL: EIVLTQSPATLSLSPGERATLSCSASSSVSSMYWYQQKPGLAPRLLIYDTSKMASGIPDRFSGSGSGTDFTLTISRLEPEDFAVYYCQQWSSYPPITFGQGTRLEIK
notes: The label follows the pattern H3-L4
B1: the binding result in test [1] was “binds”.

B2: humanized UMG1 antibody H3-L3 (VH3 + VL3) (antibody, IgG1, V domains shown)
VH: EVQLVESGGGLVQPGGSLRLSCVASGFTFSSFGMHWVRQAPGKGLEWVAYISSGSGNFYYVDTVKGRFTISRDNAKNSLYLQMNSLRAEDTAVYYCARSTYYHGSRGAMDYWGQGTLVTVSS
VL: QVVMTQSPAFLSVTPGEKVTITCSASSSVSSMYWYQQKPDQAPKLLIYDTSKMASGVPSRFSGSGSGTDFTFTISSLEAEDAATYYCQQWSSYPPITFGGGTKVEIK
notes: as for B1
For the molecule B2, the binding result in test [1] was “binds”.

B3: humanized UMG1 antibody H2-L1 (VH2 + VL1) (antibody, IgG1, V domains shown)
VH: EVQLVESGGGLVQPGGSLRLSCVASGFTFSSFGMHWVRQAPGKGLEWVSYISSGSGNFYYVDTVKGRFTISRDNAKNSLYLQMNSLRAEDTAVYYCARSTYYHGSRGAMDYWGQGTLVTVSS
VL: EIVLTQSPATLSLSPGERATLSCSASSSVSSMYWYQQKPGLAPRLLIYDTSKMASGIPDRFSGSGSGTDFTLTISRLEPEDFAVYYCQQWSSYPPITFGQGTRLEIK
notes: as for B1
For B3, the binding result in test [1] is recorded as “binds”.

B4: humanized UMG1 antibody H2-L4 (VH2 + VL4) (antibody, IgG1, V domains shown)
VH: EVQLVESGGGLVQPGGSLRLSCVASGFTFSSFGMHWVRQAPGKGLEWVSYISSGSGNFYYVDTVKGRFTISRDNAKNSLYLQMNSLRAEDTAVYYCARSTYYHGSRGAMDYWGQGTLVTVSS
VL: QVVMTQSPAFLSVTPGEKVTITCSASSSVSSMYWYQLKPDQAPKLLIYDTSKMASGVPIRFSGSGSGTDFTFTVSSVEAEDAATYYCQQWSSYPPITFGGGTKVEIK
notes: as for B1
Turning to B4, in test [1], the binding result is “binds”.

B5: humanized UMG1 antibody H4-L1 (VH4 + VL1) (antibody, IgG1, V domains shown)
VH: QVQLVESGGGVVQPGGSLRLSCVASGFTFSSFGMHWVRQAPGKGLEWVAYISSGSGNFYYVDTVKGRFTISRDNSKNTLYLQMNSLRAEDTAVYYCARSTYYHGSRGAMDYWGQGTLVTVSS
VL: EIVLTQSPATLSLSPGERATLSCSASSSVSSMYWYQQKPGLAPRLLIYDTSKMASGIPDRFSGSGSGTDFTLTISRLEPEDFAVYYCQQWSSYPPITFGQGTRLEIK
notes: as for B1
For B5, the binding result in test [1] is reported as “binds”.

B6: humanized UMG1 antibody H2-L2 (VH2 + VL2) (antibody, IgG1, V domains shown)
VH: EVQLVESGGGLVQPGGSLRLSCVASGFTFSSFGMHWVRQAPGKGLEWVSYISSGSGNFYYVDTVKGRFTISRDNAKNSLYLQMNSLRAEDTAVYYCARSTYYHGSRGAMDYWGQGTLVTVSS
VL: EIALTQSPATLSLSPGERATLSCSASSSVSSMYWYQLKPGLAPRLLIYDTSKMASGIPIRFSGSGSGTDFTLTVSRVEPEDFAVYYCQQWSSYPPITFGQGTRLEIK
notes: as for B1
Regarding B6, the binding result in test [1] is “binds”.

B7: humanized UMG1 antibody H1-L1 (VH1 + VL1) (antibody, IgG1, V domains shown)
VH: EVQLVESGGGLVQPGGSLRLSCAASGFTFSSFGMHWVRQAPGKGLEWVSYISSGSGNFYYVDTVKGRFTISRDNAKNSLYLQMNSLRAEDTAVYYCARSTYYHGSRGAMDYWGQGTLVTVSS
VL: EIVLTQSPATLSLSPGERATLSCSASSSVSSMYWYQQKPGLAPRLLIYDTSKMASGIPDRFSGSGSGTDFTLTISRLEPEDFAVYYCQQWSSYPPITFGQGTRLEIK
notes: as for B1
Turning to B7, in test [1], the binding result is recorded as “binds”.

B8: humanized UMG1 antibody H1-L4 (VH1 + VL4) (antibody, IgG1, V domains shown)
VH: EVQLVESGGGLVQPGGSLRLSCAASGFTFSSFGMHWVRQAPGKGLEWVSYISSGSGNFYYVDTVKGRFTISRDNAKNSLYLQMNSLRAEDTAVYYCARSTYYHGSRGAMDYWGQGTLVTVSS
VL: QVVMTQSPAFLSVTPGEKVTITCSASSSVSSMYWYQLKPDQAPKLLIYDTSKMASGVPIRFSGSGSGTDFTFTVSSVEAEDAATYYCQQWSSYPPITFGGGTKVEIK
notes: as for B1
B8: in test [1], the binding result is on record as “binds”.

B9: humanized UMG1 antibody H4-L2 (VH4 + VL2) (antibody, IgG1, V domains shown)
VH: QVQLVESGGGVVQPGGSLRLSCVASGFTFSSFGMHWVRQAPGKGLEWVAYISSGSGNFYYVDTVKGRFTISRDNSKNTLYLQMNSLRAEDTAVYYCARSTYYHGSRGAMDYWGQGTLVTVSS
VL: EIALTQSPATLSLSPGERATLSCSASSSVSSMYWYQLKPGLAPRLLIYDTSKMASGIPIRFSGSGSGTDFTLTVSRVEPEDFAVYYCQQWSSYPPITFGQGTRLEIK
notes: as for B1
B9: the binding result in test [1] is listed as “binds”.

B10: humanized UMG1 antibody H4-L3 (VH4 + VL3) (antibody, IgG1, V domains shown)
VH: QVQLVESGGGVVQPGGSLRLSCVASGFTFSSFGMHWVRQAPGKGLEWVAYISSGSGNFYYVDTVKGRFTISRDNSKNTLYLQMNSLRAEDTAVYYCARSTYYHGSRGAMDYWGQGTLVTVSS
VL: QVVMTQSPAFLSVTPGEKVTITCSASSSVSSMYWYQQKPDQAPKLLIYDTSKMASGVPSRFSGSGSGTDFTFTISSLEAEDAATYYCQQWSSYPPITFGGGTKVEIK
notes: as for B1
In the case of B10, the binding result in test [1] is reported as “binds”.

B11: humanized UMG1 antibody H1-L2 (VH1 + VL2) (antibody, IgG1, V domains shown)
VH: EVQLVESGGGLVQPGGSLRLSCAASGFTFSSFGMHWVRQAPGKGLEWVSYISSGSGNFYYVDTVKGRFTISRDNAKNSLYLQMNSLRAEDTAVYYCARSTYYHGSRGAMDYWGQGTLVTVSS
VL: EIALTQSPATLSLSPGERATLSCSASSSVSSMYWYQLKPGLAPRLLIYDTSKMASGIPIRFSGSGSGTDFTLTVSRVEPEDFAVYYCQQWSSYPPITFGQGTRLEIK
notes: as for B1
B11: the binding result in test [1] is reported as “binds”.

B12: humanized UMG1 antibody H1-L3 (VH1 + VL3) (antibody, IgG1, V domains shown)
VH: EVQLVESGGGLVQPGGSLRLSCAASGFTFSSFGMHWVRQAPGKGLEWVSYISSGSGNFYYVDTVKGRFTISRDNAKNSLYLQMNSLRAEDTAVYYCARSTYYHGSRGAMDYWGQGTLVTVSS
VL: QVVMTQSPAFLSVTPGEKVTITCSASSSVSSMYWYQQKPDQAPKLLIYDTSKMASGVPSRFSGSGSGTDFTFTISSLEAEDAATYYCQQWSSYPPITFGGGTKVEIK
notes: as for B1
On to B12, for which the binding result in test [1] was “binds”.

B13: humanized UMG1 antibody H2-L3 (VH2 + VL3) (antibody, IgG1, V domains shown)
VH: EVQLVESGGGLVQPGGSLRLSCVASGFTFSSFGMHWVRQAPGKGLEWVSYISSGSGNFYYVDTVKGRFTISRDNAKNSLYLQMNSLRAEDTAVYYCARSTYYHGSRGAMDYWGQGTLVTVSS
VL: QVVMTQSPAFLSVTPGEKVTITCSASSSVSSMYWYQQKPDQAPKLLIYDTSKMASGVPSRFSGSGSGTDFTFTISSLEAEDAATYYCQQWSSYPPITFGGGTKVEIK
notes: as for B1
Take B13: the binding result in test [1] is recorded as “binds”.

B14: humanized UMG1 antibody H3-L2 (VH3 + VL2) (antibody, IgG1, V domains shown)
VH: EVQLVESGGGLVQPGGSLRLSCVASGFTFSSFGMHWVRQAPGKGLEWVAYISSGSGNFYYVDTVKGRFTISRDNAKNSLYLQMNSLRAEDTAVYYCARSTYYHGSRGAMDYWGQGTLVTVSS
VL: EIALTQSPATLSLSPGERATLSCSASSSVSSMYWYQLKPGLAPRLLIYDTSKMASGIPIRFSGSGSGTDFTLTVSRVEPEDFAVYYCQQWSSYPPITFGQGTRLEIK
notes: as for B1
B14: the binding result in test [1] is recorded as “binds”.

B15: humanized UMG1 antibody H4-L4 (VH4 + VL4) (antibody, IgG1, V domains shown)
VH: QVQLVESGGGVVQPGGSLRLSCVASGFTFSSFGMHWVRQAPGKGLEWVAYISSGSGNFYYVDTVKGRFTISRDNSKNTLYLQMNSLRAEDTAVYYCARSTYYHGSRGAMDYWGQGTLVTVSS
VL: QVVMTQSPAFLSVTPGEKVTITCSASSSVSSMYWYQLKPDQAPKLLIYDTSKMASGVPIRFSGSGSGTDFTFTVSSVEAEDAATYYCQQWSSYPPITFGGGTKVEIK
notes: as for B1
For the molecule B15, in test [1], the binding result is listed as “binds”.

B16: ch-UMG1 (chimeric antibody: murine UMG1 variable regions on human IgG1 constant regions) (antibody, V domains shown)
VH: DVQLVESGGGLVQPGGSRKLSCVASGFTFSSFGMHWVRQAPEKGLEWVAYISSGSGNFYYVDTVKGRFTISRDNPKNTLFLQMTSLRSEDTAMYYCARSTYYHGSRGAMDYWGQGTSVTVSS
VL: QIALTQSPAIMSASPGEKVTMTCSASSSVSSMYWYQLKPGSSPRLLIYDTSKMASGVPIRFSGSGSGTSFSLTVSRVEAEDAATYYCQQWSSYPPITFGAGSKLELKR
notes: also called chimeric mAb ch-UMG1; chimeric mAb
B16: the binding result in test [2] is given as “binds”.

These data come from patent US20200123268A1 (UNIVERSIT DEGLI STUDI MAGNA GRAECIA CATANZARO, published 2020).
